± gives the standard deviation.
Assay: protein stability index of a GFP-peptide fusion (GPS, HEK-293T) (PSI 1-6); higher = more stable
[1] = treatment: DMSO, c terminus: a fixed tail appended
[2] = treatment: MLN4924 1 uM, 8 h, c terminus: a fixed tail appended
[3] = treatment: DMSO, c terminus: native
[4] = treatment: MLN4924 1 uM, 8 h, c terminus: native
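Also: 24-mer peptide tiles fused after GFP, lentivirally expressed, FACS-sorted into six equal bins by GFP/DsRed ratio, decoded by Illumina sequencing, PSI is the read-weighted mean bin number.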

Sequence VFGRLRDENGRPYSPSQYALQYAG [NFE2L1] has a protein stability index [1] of 2.86 ± 0.45 and a protein stability index [2] of 2.65 ± 0.36.
VFLASGAVSVMKKCRKLEDPQSSS [SLC19A2] gave a protein stability index [1] of 2.81 ± 0.043 and a protein stability index [2] of 2.98 ± 0.15.
For VFPIKHYQDKIRPYIQLPSHSNIT [TRIB1], the protein stability index [1] was 2.5 ± 0.22 and the protein stability index [2] was 2.62 ± 0.22.
For VFSTMAGLEEADAEVSVISEADPQ [FBF1], the protein stability index [1] was 5.18 ± 0.36 and the protein stability index [2] was 5.26 ± 0.25.
Sequence VGEVLKDIETACKLLNITADPMDW [SPDEF] has a protein stability index [1] of 2.71 ± 0.17 and a protein stability index [2] of 2.51 ± 0.27.
VGKTRLICARACNATLTQYQLLAT [RHOBTB2] showed a protein stability index [1] of 2.28 ± 0.34 and a protein stability index [2] of 2.17 ± 0.31.
Work on VGLVTNQLSHIKAKIRAKIPGTGA [RTN2] yielded a protein stability index [1] of 2.79 ± 0.16 and a protein stability index [2] of 2.9 ± 0.11.
In the case of VGSGYRMSLVKRRFATGMYLVSC [FCHO1], the protein stability index [3] is reported as 2.89 ± 0.34 and the protein stability index [4] is reported as 3.03 ± 0.4.
Work on VHHLPLSTEKVVQETVLVEERRVV [EPB41L3] yielded a protein stability index [1] of 4.3 ± 0.14 and a protein stability index [2] of 4.43 ± 0.27.
Work on VHVIGVEEPSVGASMLFDIREST [ZNF8] yielded a protein stability index [3] of 2.3 ± 0.27 and a protein stability index [4] of 2.38 ± 0.17.
VIAINYNEKIYELRVMETKPDKAV [UFD1] showed a protein stability index [1] of 1.89 ± 0.27 and a protein stability index [2] of 2.39 ± 0.24.
VIRLKQEQHVHNEKSVLKEVSHPF [PRKX] showed a protein stability index [1] of 3.36 ± 0.062 and a protein stability index [2] of 3.62 ± 0.36.
Sequence VIRWIAHDTEIRKVHMKDVMSALW [GAN] has a protein stability index [1] of 2.38 ± 0.63 and a protein stability index [2] of 2.08 ± 0.2.
Work on VLEYRRTNFEGPPRLKEDQPWMVI [FSD1] yielded a protein stability index [1] of 2.12 ± 0.44 and a protein stability index [2] of 2.35 ± 0.39.
For VLLMKDRETNKSRGFAFVTFESPA [RBMX], the protein stability index [1] was 2.06 ± 0.47 and the protein stability index [2] was 2.2 ± 0.41.
Work on VLRREISELRTKVQEQQKQLQDQD [FBXO28] yielded a protein stability index [1] of 4.73 ± 0.17 and a protein stability index [2] of 4.66 ± 0.23.
For VLRTWRTNLPKGACALLLTSVDHD [DLC1], the protein stability index [1] was 2.26 ± 0.66 and the protein stability index [2] was 2.44 ± 0.39.
In the case of VLVILISIVIFCLETLPEFRDEKD [KCNA3], the protein stability index [1] is reported as 2.54 ± 0.81 and the protein stability index [2] is reported as 2.25 ± 0.88.
For VPAAGGPAPKRGYSSEMKTEDELR [AUH], the protein stability index [1] was 5.53 ± 0.68 and the protein stability index [2] was 5.9 ± 0.071.
For VPECRLAEDLGNLWENTRFTDCSF [SPOPL], the protein stability index [1] was 2.74 ± 0.34 and the protein stability index [2] was 3.21 ± 0.44.
Work on VPWLNLKKQDENEGIKVEDLLFIV [CEP70] yielded a protein stability index [1] of 1.97 ± 0.42 and a protein stability index [2] of 2.26 ± 0.22.
VQIKTWFQNRRMKHKRQMQDPQLH [VENTX] showed a protein stability index [1] of 2.55 ± 0.4 and a protein stability index [2] of 2.52 ± 0.34.
Sequence VRERDRLGNEYPKLHYPELYVLKG [CDC25A] has a protein stability index [1] of 2.62 ± 0.21 and a protein stability index [2] of 2.75 ± 0.12.
With VSNDSHTWVTVKNGSGDMIFEGNS [CPXM2] the protein stability index [1] was 3.79 ± 0.16 and the protein stability index [2] was 4.32 ± 0.3.
In the case of VSTQRSQDHFHVFVGDLSPEITTE [TIA1], the protein stability index [1] is reported as 3.98 ± 0.29 and the protein stability index [2] is reported as 3.92 ± 0.41.
With VVGLHAASKDPREVREARDHKEPK [EHMT1] the protein stability index [1] was 5.06 ± 0.13 and the protein stability index [2] was 5.11 ± 0.052.
Work on VVGNWQYFFPVIFSKASSSLQLVF [MAGEA3] yielded a protein stability index [1] of 3.28 ± 0.46 and a protein stability index [2] of 3.11 ± 0.55.
In the case of VVHQRVHSGEKPYKCSDCGKTFKQ [ZNF232], the protein stability index [1] is reported as 3.29 ± 0.25 and the protein stability index [2] is reported as 3.43 ± 0.23.
Sequence VVPVLVFPPDLVFRADQRSGPRQL [MOSPD3] has a protein stability index [1] of 2.27 ± 0.38 and a protein stability index [2] of 2.41 ± 0.25.
In the case of VWMLMLLLAVPNIILTNQSVREVT [P2RY14], the protein stability index [1] is reported as 3.27 ± 0.3 and the protein stability index [2] is reported as 2.96 ± 0.46.
VYNAARDGKLQLLQKLLSGRSREE [FEM1A] gave a protein stability index [1] of 2.77 ± 0.15 and a protein stability index [2] of 2.79 ± 0.27.
Sequence VYSLQDFDTLATVGTGTFGRVHLV [PRKX] has a protein stability index [1] of 2.42 ± 0.079 and a protein stability index [2] of 2.42 ± 0.37.
WAQLEAPARLLLQALQAGPEGARR [FANCE] gave a protein stability index [1] of 2.78 ± 0.37 and a protein stability index [2] of 3.08 ± 0.29.
Work on WFFLQSELKKLKNLEGNELQRHAD [FUT8] yielded a protein stability index [1] of 2.56 ± 0.34 and a protein stability index [2] of 2.71 ± 0.41.
Work on WFSCQGPFDMDSCLSRHSINPYSN [DFFB] yielded a protein stability index [1] of 2.35 ± 0.24 and a protein stability index [2] of 2.2 ± 0.27.
With WGEGLHQLREALKILAERVLILET [EMID1] the protein stability index [1] was 2.47 ± 0.24 and the protein stability index [2] was 2.78 ± 0.31.
WGFRLVGGRDFSAPLTISRVHAGS [PDLIM4] gave a protein stability index [1] of 2.02 ± 0.24 and a protein stability index [2] of 2.17 ± 0.32.
With WHPKPYCQALPYGPGYWMCCHRSQ [FBXO34] the protein stability index [1] was 2.32 ± 0.37 and the protein stability index [2] was 2.08 ± 0.14.
Sequence WKVRAEKEACQREKELPAAVHPFH [ZBED2] has a protein stability index [1] of 3.9 ± 0.18 and a protein stability index [2] of 3.93 ± 0.15.
In the case of WLFGATAVALGGVALSVVIAARN [FKBP8], the protein stability index [3] is reported as 2.51 ± 0.55 and the protein stability index [4] is reported as 2.59 ± 0.4.
For WNDFLMCYSSRPLLCWSVWWALST [SLC19A2], the protein stability index [1] was 3.5 ± 0.3 and the protein stability index [2] was 3.32 ± 0.46.
WRRSGKYVYKPVMNQTCCPQYTIR [ATE1] gave a protein stability index [1] of 2.03 ± 0.22 and a protein stability index [2] of 2.32 ± 0.32.
Sequence WSIVGMAVVKGIQSSGKVMYFSSL [SLC6A17] has a protein stability index [1] of 2.94 ± 0.68 and a protein stability index [2] of 2.6 ± 0.78.
YAPPPTPAPATQMPSTPGFVGYNP [SMARCE1] gave a protein stability index [1] of 3.01 ± 0.36 and a protein stability index [2] of 3.72 ± 0.32.
YEAIAKHNQVEAAWLEGRIRQEFD [TRIM35] gave a protein stability index [1] of 3.9 ± 0.25 and a protein stability index [2] of 3.85 ± 0.18.

Source: the supplement of paper PMC10567573
